Elution pH from Protein A column data for two substances are collected here from patent publication US20190031713A1.

For this assay, the target named is Protein A (on chromatography support) (UniProt P38507). The assay is described as follows: Protein A column, linear pH gradient.

For the substance “IgG1 heterodimer with two IgG1 heavy chains identical but for an H435R/Y436F dipeptide modification in one CH3 domain (from UniProt P01857 1-330) (antibody)”, the elution pH from Protein A column is 3.9 pH. For “IgG1 homodimer (unmodified CH3) (antibody)”, the elution pH from Protein A column turned out to be 3.7 pH.
